Data on two molecules can be found in publication PMC4005679, “In vitro assembly and activity of an archaeal CRISPR-Cas type I-A Cascade interference complex” (Nucleic Acids Research, 2014).

For one series, the target named is T1, Cas7 (Thermoproteus tenax Kra1, UniProt G4RJZ1 1-329).
T1 sequence: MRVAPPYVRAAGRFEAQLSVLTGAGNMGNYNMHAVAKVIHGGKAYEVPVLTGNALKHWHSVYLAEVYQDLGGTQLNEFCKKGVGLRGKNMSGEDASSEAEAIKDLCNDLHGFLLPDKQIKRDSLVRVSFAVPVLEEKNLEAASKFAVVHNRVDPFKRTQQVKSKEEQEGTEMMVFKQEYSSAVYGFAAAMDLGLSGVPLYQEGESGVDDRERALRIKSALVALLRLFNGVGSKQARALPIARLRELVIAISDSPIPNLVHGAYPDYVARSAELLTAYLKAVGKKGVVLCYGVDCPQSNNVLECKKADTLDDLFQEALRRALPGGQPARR
The series can be described thus: EMSA; 4 uM Cas7, no competitor; nonspecific, similar shift with yeast RNA; 100 mM HEPES/KOH pH 7, 100 mM NaCl, 10 mM beta-mercaptoethanol, 50 ng yeast RNA, 30 min at 70 C (Cascade; 6% native TBE-PAGE); Cas7 alone without yeast RNA at 80 C, agarose gel; 2-4 nM labeled crRNA. Conditions: protein: recombinant; tags: His-SUMO tag cleaved off; label: 5'-32P (EMSA); unlabeled in SEC; single strand.

In series [1] the target is T2, Cas7 purified via a His-SUMO-tagged fusion protein (Thermoproteus tenax, UniProt G4RJZ1 1-329).
T2 construct: Cas7 of the type I-A Cascade of Thermoproteus tenax Kra1 (genome FN869859), full-length protein; also called Cas7-SUMO; monomeric Cas7; source: E. coli BL21-Gold(DE3)Star pRARE, purified (Ni-NTA, SUMO protease, HiTrap Heparin, Superdex 75)
T2 sequence (looked up): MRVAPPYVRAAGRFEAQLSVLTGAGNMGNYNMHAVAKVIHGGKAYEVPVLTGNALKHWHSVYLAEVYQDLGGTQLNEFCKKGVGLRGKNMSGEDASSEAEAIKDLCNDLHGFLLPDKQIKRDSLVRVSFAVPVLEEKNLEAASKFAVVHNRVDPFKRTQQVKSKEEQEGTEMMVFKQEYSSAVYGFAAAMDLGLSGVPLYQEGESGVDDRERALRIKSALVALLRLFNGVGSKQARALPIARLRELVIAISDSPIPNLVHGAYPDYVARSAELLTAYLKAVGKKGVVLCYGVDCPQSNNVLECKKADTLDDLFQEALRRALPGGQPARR
The series can be described thus: SEC; six co-refolded Cascade subunits, incubated 30 min at 65°C, Superdex 200 10/300; fractions TCA-precipitated and analysed by SDS-PAGE. To be noted: both partners purified.

For series [2], the target named is T3, Cas5a (recombinant, refolded) (Thermoproteus tenax, UniProt G4RJZ2 1-226).
T3 construct: Cas5a of the type I-A Cascade of Thermoproteus tenax Kra1 (genome FN869859)
T3 sequence (looked up): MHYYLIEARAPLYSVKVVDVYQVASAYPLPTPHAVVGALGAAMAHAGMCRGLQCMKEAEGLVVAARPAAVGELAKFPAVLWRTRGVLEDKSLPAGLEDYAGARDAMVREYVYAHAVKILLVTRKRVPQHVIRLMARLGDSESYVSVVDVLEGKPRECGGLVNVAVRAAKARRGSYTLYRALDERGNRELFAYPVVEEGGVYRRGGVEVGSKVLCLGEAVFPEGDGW
The description is as above. Conditions: both partners purified.

The target of series [3] is T4, Cas8a2 (recombinant, refolded) (Thermoproteus tenax, UniProt G4RJZ5 1-361).
T4 construct: Cas8a2 of the type I-A Cascade of Thermoproteus tenax Kra1 (genome FN869859)
T4 sequence (looked up): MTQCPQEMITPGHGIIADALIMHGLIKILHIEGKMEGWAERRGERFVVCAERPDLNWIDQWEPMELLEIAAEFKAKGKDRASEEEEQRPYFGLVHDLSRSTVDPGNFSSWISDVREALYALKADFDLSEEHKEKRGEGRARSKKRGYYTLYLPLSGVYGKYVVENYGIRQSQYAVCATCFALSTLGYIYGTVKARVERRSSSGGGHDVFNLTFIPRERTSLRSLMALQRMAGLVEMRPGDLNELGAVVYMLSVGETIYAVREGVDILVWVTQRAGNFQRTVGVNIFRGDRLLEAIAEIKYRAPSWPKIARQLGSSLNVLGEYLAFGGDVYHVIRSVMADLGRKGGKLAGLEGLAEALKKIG
Described as above. To be noted: both partners purified.

B1: crRNA 5.2 (ssRNA)
RNA: AUUGAAAGCGUUGAUGCGGCCGCGACUGGCUGACUCAGCUAUUACGUUGA
modifications: 5'-OH from hammerhead cleavage before labeling
In the case of B1, the binding result with Cas7 is given as “binds”.

B2: Csa5 (recombinant, soluble) (natural protein, Thermoproteus tenax, UniProt G4RJZ0 1-130, looked up)
chain: MESVQLKKEELVERAARSVRPAVHLEMAYDVLDELSRSPEKYPEQLAKLSRIVVKVLNDVEDELEHNPQNEELQKARNRLAAWGGYVAELAKRLEEADDRERIRMVRLFCAMALAPDKLTVELKKLLKGR
notes: Csa5, subunit of the type I-A Cascade of Thermoproteus tenax Kra1 (genome FN869859); source: E. coli Rosetta2(DE3)pLysS, csa5 in pET24a(+), purified (heat precipitation 90°C, Hi Screen Blue FF, MonoQ)
For B2, the binding result in series [1], in series [2] and in series [3] was “binds” in each case.
